# In patent US6111081A, “Lactoferrin variants and uses thereof” (Baylor College of Medicine, priority 1997, dated 2000):
# B1: recombinant lactoferrin: purified wild-type recombinant human lactoferrin expressed in Aspergillus awamori (protein, UniProt P02788 20-710, looked up)
# Lactotransferrin: GRRRSVQWCAVSQPEATKCFQWQRNMRKVRGPPVSCIKRDSPIQCIQAIAENRADAVTLDGGFIYEAGLAPYKLRPVAAEVYGTERQPRTHYYAVAVVKKGGSFQLNELQGLKSCHTGLRRTAGWNVPIGTLRPFLNWTGPPEPIEAAVARFFSASCVPGADKGQFPNLCRLCAGTGENKCAFSSQEPYFSYSGAFKCLRDGAGDVAFIRESTVFEDLSDEAERDEYELLCPDNTRKPVDKFKDCHLARVPSHAVVARSVNGKEDAIWNLLRQAQEKFGKDKSPKFQLFGSPSGQKDLLFKDSAIGFSRVPPRIDSGLYLGSGYFTAIQNLRKSEEEVAARRARVVWCAVGEQELRKCNQWSGLSEGSVTCSSASTTEDCIALVLKGEADAMSLDGGYVYTAGKCGLVPVLAENYKSQQSSDPDPNCVDRPVEGYLAVAVVRRSDTSLTWNSVKGKKSCHTAVDRTAGWNIPMGLLFNQTGSCKFDEYFSQSCAPGSDPRSNLCALCIGDEQGENKCVPNSNERYYGYTGAFRCLAENAGDVAFVKDVTVLQNTDGNNNEAWAKDLKLADFALLCLDGKRKPVTEARSCHLAMAPNHAVVSRMDKVERLKQVLLHQQAKFGRNGSDCPDKFCLFQSETKNLLFNDNTECLARLHGKTTYEKYLGPQYVAGITNLKKCSTSPLLEACEFLRK
# Experiment: pH-dependent release of 59Fe (dialysis, liquid scintillation counting)
# Type: physicochemical
# Conditions: 59Fe-saturated protein dialyzed against buffers pH 7-2, 48 hours, 4° C.; FIG. 4
# Experimental: FIG. 4 depicts pH-dependent release of ^59 Fe from the lactoferrin amino-terminal (MN-2Y) and carboxy-terminal (MC-2Y) iron binding defective variants. ^59 Fe-saturated recombinant human lactoferrin (Rec hLF), MN-2Y and MC-2Y were dialyzed against buffers ranging in pH from 7-2. ^59 Fe remaining bound to the lactoferrin samples after dialysis was quantified by liquid scintillation counting and the Fe/protein molar ratio was determined. The data are represented as means ±S.E.M.
# MN-2Y, MC-2Y and MNC-4Y (5 mg) were incubated with a four-fold excess of FeCl3 :^59 FeCl3 :NTA (400:1:8). Ward et al., 1995, Biotechnology 13:498-503. The samples were incubated at room temperature for 30 minutes. The samples were purified through NAP-10 column (Pharmacia, Piscataway, N.J.) followed by dialysis against 0.05 M Tris/HCl, 0.2 M NaCl, pH 7.0 for 12 hours to remove any non-specific iron bound to the lactoferrin variants. Iron bound to the lactoferrin variants after dialysis was quantified by liquid scintillation counting. The pH stability of iron binding for each of the lactoferrin variants was carried out as described previously. […]
# The lactoferrin variants were saturated with ^59 FeCl3 and dialyzed against buffers ranging in pH from 7-2 for 48 hours at 4° C. The amount of iron remaining bound to the lactoferrin variants was quantified by liquid scintillation counting. […]
molecule,measurement,value
B1,pH at which iron release begins,5.0
same,pH at which iron release is completed,2.0
